Results taken from patent publication US20110045003A1 (SYNOVEX, published 2011).

T1: BSA coupled 37-mer Cad-11 peptide encompassing the Cad-11 immunogen (UniProt P55287 54-90, limits assumed, linked to BSA)
T1 construct: domain: 37-mer peptide encompassing the Cad-11 immunogen; also called Cad-11 antigen; Cad-11 peptide immunogen
T1 peptide (looked up): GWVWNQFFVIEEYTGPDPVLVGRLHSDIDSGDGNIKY

T2: recombinant Cad-11 EC1 human IgG1 fusion protein (R&D Systems Cat. No. 1790-CA-050) (human, UniProt P55287 54-617, limits assumed)
T2 construct: Bought protein; the catalogue product may hold more of the extracellular region; also called recombinant human Cad-11 EC1; recombinant human Cad-11 fusion protein; not shown: human IgG1 part of the bought fusion protein
T2 sequence: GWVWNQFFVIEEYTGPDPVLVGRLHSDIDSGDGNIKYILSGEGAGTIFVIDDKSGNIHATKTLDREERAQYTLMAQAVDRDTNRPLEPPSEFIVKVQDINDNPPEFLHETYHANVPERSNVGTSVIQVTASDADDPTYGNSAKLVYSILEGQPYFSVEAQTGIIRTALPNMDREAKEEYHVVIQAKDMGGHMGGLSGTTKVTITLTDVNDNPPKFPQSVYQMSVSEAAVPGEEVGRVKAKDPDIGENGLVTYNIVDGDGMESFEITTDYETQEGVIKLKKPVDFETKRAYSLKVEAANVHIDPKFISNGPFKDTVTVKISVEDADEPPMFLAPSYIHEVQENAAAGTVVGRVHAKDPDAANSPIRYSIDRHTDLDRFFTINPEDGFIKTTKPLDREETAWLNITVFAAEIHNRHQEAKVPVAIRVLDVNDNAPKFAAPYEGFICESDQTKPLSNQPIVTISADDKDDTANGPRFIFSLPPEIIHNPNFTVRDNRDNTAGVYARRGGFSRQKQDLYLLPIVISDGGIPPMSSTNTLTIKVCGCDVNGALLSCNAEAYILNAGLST

T3: Peptide 4 (first 33 amino acids, G1-G33, of the human Cad-11 EC1 domain) (human)
T3 construct: also called PEP4; Peptide 4 immunogen
T3 peptide: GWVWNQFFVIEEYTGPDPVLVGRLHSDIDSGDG


Tests used:
[1] = biological target: T1, BSA coupled 37-mer Cad-11 peptide …; assay: ELISA, BSA-coupled 37-mer cadherin peptide coated at 500 ng/ml, antibody titrated, A450
Method: Reactibind plates (ThermoScientific) were coated with 500 ng/ml of the BSA coupled cadherin 37-mer peptide (NE peptide) corresponding to Cadherins-7, -8, -9, -11, -18, -20, and -24 in 0.05% Tween (EMD, product code 9480) in PBS (pH 7.2) (Gibco(Invitrogen), #20012) at 100 μl volume/well for overnight at 4° C. The peptide containing solution was removed from the well and the plate blocked with a 2% bovine serum albumin (BSA) in PBS, 200 μl volume/well, for 2 h at 22° C. The plate was then washed twice with 200 μl/well of PBS-Tween 0.05% at 22° C. and blotted dry. A dilution series from 5 μg/ml to 8 ng/ml in a volume of 100 μl/well of each the humanized anti-Cad-11 antibodies were incubated in the peptide coated wells and incubated at 22° C. for 1 hr. Antibody solution was removed from the wells and the plate washed twice with 200 μl/well of 0.05% Tween-PBS at 22° C. and blotted dry. The goat-anti mouse IgG (Pierce # 31432) was added to each well to plate at a 1:1000 dilution, 100 μl/well and incubate at 22° C. for 30 min. The secondary antibody solution was removed and the plate washed twice with 200 μl/well of 0.05% Tween-PBS at 22° C. and blotted dry. The reaction was developed by adding 100 μl/well tetramethylbenzidine (TMB) reagent IgG (Pierce # 34022, 1 step Turbo TMB-ELISA) to plate and developed at 22° C. for 5 min.

[2] = biological target: T2, recombinant Cad-11 EC1 human IgG1 …; assay: competition ELISA on coated recombinant human Cad-11 EC1 fusion; competitor biotinylated SYN0012/H1M1 at 0.1 µg/ml
Method: The binding of the purified humanized composite variant antibodies (SDP011 to SDP151) to a recombinant Cad-11 EC1 human IgG1 fusion protein was assessed in a competition binding ELISA. A dilution series from 5 μg/ml to 0.0022 μg/ml of the humanized or control (SYN0012/H1M1) antibodies was premixed with a constant concentration of biotinylated murine anti-Cad-11 antibody, SYN0012/H1M1 (0.1 μg/ml, final concentration), before incubating for 1 hour at room temperature on a Nunc Immuno MaxiSorp 96 well flat bottom microtitre plate (Fisher Cat. No. DIS-971-030J) pre-coated with 0.25 μg/ml recombinant human Cad-11 EC1 (R&D Systems Cat. No. 1790-CA-050) diluted in PBS. The binding of the biotinylated mAb was detected with streptavidin-HRP (Sigma Cat. No. 55512) and tetramethylbenzidine (TMB) substrate (Invitrogen Cat. No. 00-2023).
The relative IC50 was calculated by dividing the value for the test antibody by that of SYN0012. Antibody expression levels given are for static cultures in T flasks. PI are calculated.

[3] = biological target: T3, Peptide 4 (first 33 amino acids, …); assay: ELISA on biotinylated EC1 peptides
Method: The specificity of H1M1 and H14 anti-Cad-11 antibodies was tested further using an ELISA against the first 33 amino acids of the EC1 domains of Cad-11, Cad-7, Cad-8, Cad-20, Cad-24, Cad-9, Cad-18, and MN-Cad. Peptides corresponding to the region of Cad-7, Cad-8, Cad-20, Cad-24, Cad-9, Cad-18, MN-Cad that overlapped with the G1-G33 region of the Cad-11 EC1 domain were synthesized and conjugated to biotin. 100 μl of a 30 ng/ml solution of each of these peptides in PBS-Tween (0.05%) were incubated in each well of a 96-well Netravidin plate for 2-3 hrs at 4° C. and then washed twice with PBS-Tween (0.05%). Various concentrations of the anti-Cad-11 antibody were incubated in each well for 1 hr at 22° C. and then washed twice with PBS-Tween (0.05%). 100 μl of a 1/1000 dilution of a goat anti-mouse IgG secondary antibody were added to each well, incubated for 30 min at 22° C., and then washed twice with PBS-Tween (0.05%). 100 μl/well of room temperature TMB (3,3′,5,5′-tetramethylbenzidine) reagent was added to each well and color was allowed to develop for 5 min at 22° C.

| EC50 (read off the curve) [1] [µg/mL] | relative IC50 (IC50 of the test antibody divided by that of SYN0012) [2] | fold higher binding to Cad-11 than to any of the other cadherins tested [3] [fold] | Binder |
| --- | --- | --- | --- |
| ~0.04 | 0.99 ratio (column head prints µg/mL) | – | humanized anti-Cad-11 EC1 antibody SDP051 (Vκ1/VH5) (antibody, IgG4, V domains shown, humanized IgG4 (S241P), kappa) VH: EVQLVQSGAEVKKPGASVKVSCKASGYSFTGYFMNWVRQAPGQGLEWIGRINPYTGDTFYNQKFKGRVTITVDKSTSTAYMELSSLRSEDTAVYYCGRLGSRYWYFDVWGQGTTVTVSS VL: DVLMTQTPLSSPVTLGQPASISCRSSQSIIHSNGNTYLEWYLQKPGQSPQLLIYKVSNRFSGVPDRFTGSGSGTDFTLKISRVEAEDVGVYYCFQGSHVPWTFGQGTKLEIK |
| – | – | > 100 | murine H1M1 monoclonal anti-Cad-11 EC1 antibody (hybridoma H1M1, ATCC PTA-9699) (antibody, V domains shown, Biotinylated when used as the labelled competitor in Example 14; the letters are unchanged., murine antibody raised against Peptide 4; also called SYN0012; SYN0012/H1M1) VH: EVQLQQSGPELVKPGASVKISCKASGYSFTGYFMNWVKQSHGKSLEWIGRINPYTGDTFYNQKFKGKATLTVDKSSSTAHMELLSLSSEDSAVYYCGRLGSRYWYFDVWGAGTTVTVSS VL: DVLMTQTPLSLPVSLGDQASISCRSSQSIIHSNGNTYLEWYLQKPGQSPKLLIYKVSNRFSGVPDRFTGSGSGTDFTLKISRVEAEDLGVYYCFQGSHVPWTFGGGTKLEIK |
